Measurements: US20100240040A1, “METHOD FOR SCREENING FOR SELECTIVE MODULATOR OF THE NF-KB PATHWAY ACTIVATION” (INSTITUT PASTEUR, priority 2007, published 2010)

What was measured:
Biot-CC2-LZ (murine) [1] = assay: HTRF, 50 nM each, streptavidin-EuK 2 nM, anti-His-XL665 7 nM
Biot-CC2-LZ (murine) [2] = assay: HTRF, 50 nM each, in the presence of GST-Ub4 (12.5 µM), which induces the CC2-LZ dimer
Biot-CC2-LZ (murine) [3] = assay: HTRF, 50 nM each, in the presence of Poly-Ub (12.5 µM)
Biot-CC2-LZ (murine) [4] = assay: HTRF, 50 nM each, in the presence of Mono-Ub (1 µM)

FRET (ΔF %) (Biot-CC2-LZ (murine) [1]): < 0 ΔF % | FRET (ΔF %) (Biot-CC2-LZ (murine) [2]): 373 ΔF % | FRET (ΔF %) (Biot-CC2-LZ (murine) [3]): < 0 ΔF % | FRET (ΔF %) (Biot-CC2-LZ (murine) [4]): < 0 ΔF %
B1: His-CC2-LZ (protein)
chain: MGSHHHHHHSSGLVPRGSHMASLEDLRQQLQQAEEALVAKQELIDKLKEEAEQHKIVMETVPVLKAQADIYKADFQAERHAREKLVEKKEYLQEQLEQLQREFNKL
